From the supplement of paper PMC10567573

B1: SEPHS2 (parent)
chain: KASGRFGLLQGTSAETSGGLLICL
B2: NR2F2 (parent)
chain: VAHVESLQEKSQCALEEYVRSQYP
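Further: lentivirally expressed fusions sorted by FACS into six bins by GFP to DsRed ratio, PSI derived from sequencing read proportions per bin multiplied by bin number.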

Variants of: B1
Test: protein stability index of a GFP-peptide fusion (GPS, HEK-293T) (PSI 1-6); higher = more stable
Conditions: c terminus: a fixed tail appended
Work on R5T yielded a protein stability index of 3.23.
R5C gave a protein stability index of 2.27.
R5W gave a protein stability index of 1.66.
With R5V the protein stability index was 3.1.
With R5F the protein stability index was 3.72.
Variant A14Y has a protein stability index of 2.24.
For A14N, the protein stability index was 2.93.
A14L gave a protein stability index of 2.44.
Work on A14H yielded a protein stability index of 2.43.
A14C showed a protein stability index of 1.81.
A14E showed a protein stability index of 2.62.
In the case of A14Q, the protein stability index is reported as 3.85.
A14T showed a protein stability index of 1.72.
For L21M, the protein stability index was 2.35.
With L21Q the protein stability index was 2.08.
Variant L21T has a protein stability index of 2.38.
L21V gave a protein stability index of 2.08.
Work on L21Y yielded a protein stability index of 1.32.
L21S showed a protein stability index of 2.68.
With L21E the protein stability index was 1.38.
Variant L21P has a protein stability index of 2.44.
L21A gave a protein stability index of 1.04.
Variant L21H has a protein stability index of 2.21.
With L21D the protein stability index was 2.12.
For L21R, the protein stability index was 1.57.
For L21N, the protein stability index was 2.94.
In the case of L21K, the protein stability index is reported as 1.45.
With L21G the protein stability index was 1.53.
For L8F, the protein stability index was 2.18.
L8G gave a protein stability index of 3.65.
For L8W, the protein stability index was 2.08.
In the case of L8A, the protein stability index is reported as 2.02.
In the case of L8Y, the protein stability index is reported as 1.85.
Work on L8C yielded a protein stability index of 3.4.
With L8M the protein stability index was 2.26.
L8K showed a protein stability index of 3.37.
In the case of L8V, the protein stability index is reported as 3.22.
Variant L8I has a protein stability index of 2.17.
Work on I22W yielded a protein stability index of 1.58.
Work on I22G yielded a protein stability index of 2.47.
For I22A, the protein stability index was 1.82.
For I22M, the protein stability index was 1.28.
I22C gave a protein stability index of 2.02.
I22S showed a protein stability index of 2.83.
Work on I22K yielded a protein stability index of 2.14.
In the case of I22E, the protein stability index is reported as 2.64.
With I22F the protein stability index was 4.06.
I22T gave a protein stability index of 2.33.
Work on I22P yielded a protein stability index of 3.43.
Variant I22D has a protein stability index of 1.72.
I22Y gave a protein stability index of 1.71.
I22H showed a protein stability index of 2.42.
G18P gave a protein stability index of 2.98.
In the case of G18K, the protein stability index is reported as 2.4.
Variant G18Q has a protein stability index of 2.5.
In the case of G18N, the protein stability index is reported as 2.2.
G18D gave a protein stability index of 2.67.
G18C showed a protein stability index of 3.15.
Variant F6I has a protein stability index of 2.31.
F6Q showed a protein stability index of 2.79.
For F6T, the protein stability index was 3.52.
Variant F6Y has a protein stability index of 1.75.
Work on F6L yielded a protein stability index of 2.48.
F6S gave a protein stability index of 1.81.
Variant F6D has a protein stability index of 1.03.
With F6V the protein stability index was 1.57.
Variant F6W has a protein stability index of 4.73.
Variant F6E has a protein stability index of 2.37.
F6K showed a protein stability index of 1.79.
With F6M the protein stability index was 2.44.
For G19M, the protein stability index was 2.76.
Variant G19A has a protein stability index of 3.71.
Work on G19Y yielded a protein stability index of 1.89.
Work on G19R yielded a protein stability index of 2.62.
In the case of G19Q, the protein stability index is reported as 2.1.
In the case of G19H, the protein stability index is reported as 1.74.
G19L gave a protein stability index of 2.19.
For G19T, the protein stability index was 1.74.
For G19I, the protein stability index was 2.54.
Variant L20P has a protein stability index of 2.39.
L20K showed a protein stability index of 1.95.
With L20H the protein stability index was 2.07.
Work on L20N yielded a protein stability index of 2.63.
For L20S, the protein stability index was 1.94.
In the case of L20A, the protein stability index is reported as 2.87.
L20G gave a protein stability index of 1.96.
L20E gave a protein stability index of 1.82.
In the case of L20Q, the protein stability index is reported as 2.58.
Variant T12E has a protein stability index of 2.52.
For T12L, the protein stability index was 3.67.
T12F gave a protein stability index of 3.31.
G7L showed a protein stability index of 3.5.
G7T showed a protein stability index of 1.88.
G7S gave a protein stability index of 2.55.
For G7I, the protein stability index was 2.32.
With G7A the protein stability index was 3.63.
For G7N, the protein stability index was 2.13.
G7K showed a protein stability index of 3.27.
With G7H the protein stability index was 2.78.
In the case of G7D, the protein stability index is reported as 3.42.
With G7W the protein stability index was 2.21.
With G7Y the protein stability index was 2.71.

Variants of: B2
Test: as above
Conditions: c terminus: a fixed tail appended
Variant K10E has a protein stability index of 4.48.
V19C showed a protein stability index of 3.7.
For V19W, the protein stability index was 3.06.
P24K gave a protein stability index of 3.93.
Work on V1H yielded a protein stability index of 3.55.
Work on V1I yielded a protein stability index of 3.52.
V1E gave a protein stability index of 4.24.
For V1Y, the protein stability index was 3.39.
In the case of S11D, the protein stability index is reported as 4.5.
Variant S11W has a protein stability index of 2.61.
In the case of A14H, the protein stability index is reported as 4.08.
In the case of A14I, the protein stability index is reported as 3.75.
A14Q gave a protein stability index of 3.57.
S6W gave a protein stability index of 2.77.
Variant S6K has a protein stability index of 4.12.
With S6D the protein stability index was 3.86.
S6N gave a protein stability index of 3.53.
In the case of C13R, the protein stability index is reported as 4.23.
C13K gave a protein stability index of 3.99.
C13Q gave a protein stability index of 4.55.
Variant C13N has a protein stability index of 4.47.
For Q8S, the protein stability index was 3.48.
Work on E17V yielded a protein stability index of 2.26.
For E9G, the protein stability index was 2.89.
E9K showed a protein stability index of 3.11.
For E9M, the protein stability index was 2.2.
With E9D the protein stability index was 3.59.
With A2G the protein stability index was 3.53.
A2F gave a protein stability index of 2.59.
L7H gave a protein stability index of 3.71.
Y18V showed a protein stability index of 3.75.
Y18D showed a protein stability index of 5.05.
Work on Y18T yielded a protein stability index of 4.42.
For Y18R, the protein stability index was 4.26.
Variant Q12F has a protein stability index of 2.86.
For Q12N, the protein stability index was 3.54.
H3D gave a protein stability index of 4.6.
H3P gave a protein stability index of 4.09.
H3S gave a protein stability index of 3.68.
With E16L the protein stability index was 3.3.
With E16H the protein stability index was 3.16.
In the case of E5T, the protein stability index is reported as 2.93.
With E5D the protein stability index was 3.18.
Variant E5L has a protein stability index of 2.37.
S21T gave a protein stability index of 3.95.
With S21K the protein stability index was 3.15.
S21V gave a protein stability index of 3.34.
With S21I the protein stability index was 3.02.
S21C gave a protein stability index of 3.38.
Work on S21H yielded a protein stability index of 3.46.
Work on S21G yielded a protein stability index of 3.67.
Work on S21P yielded a protein stability index of 4.04.
Y23R showed a protein stability index of 4.51.
Variant L15T has a protein stability index of 4.91.
L15W showed a protein stability index of 2.33.
L15A showed a protein stability index of 4.75.
For L15D, the protein stability index was 4.88.
With L15P the protein stability index was 4.88.
Q22P showed a protein stability index of 3.3.
For Q22D, the protein stability index was 4.15.
Variant Q22W has a protein stability index of 2.1.
For V4D, the protein stability index was 4.06.
For V4G, the protein stability index was 3.94.
V4F gave a protein stability index of 2.85.
With V4T the protein stability index was 3.59.
